Biological target: Tsr (Escherichia coli, UniProt P02942)
Sequence (P02942 whole entry): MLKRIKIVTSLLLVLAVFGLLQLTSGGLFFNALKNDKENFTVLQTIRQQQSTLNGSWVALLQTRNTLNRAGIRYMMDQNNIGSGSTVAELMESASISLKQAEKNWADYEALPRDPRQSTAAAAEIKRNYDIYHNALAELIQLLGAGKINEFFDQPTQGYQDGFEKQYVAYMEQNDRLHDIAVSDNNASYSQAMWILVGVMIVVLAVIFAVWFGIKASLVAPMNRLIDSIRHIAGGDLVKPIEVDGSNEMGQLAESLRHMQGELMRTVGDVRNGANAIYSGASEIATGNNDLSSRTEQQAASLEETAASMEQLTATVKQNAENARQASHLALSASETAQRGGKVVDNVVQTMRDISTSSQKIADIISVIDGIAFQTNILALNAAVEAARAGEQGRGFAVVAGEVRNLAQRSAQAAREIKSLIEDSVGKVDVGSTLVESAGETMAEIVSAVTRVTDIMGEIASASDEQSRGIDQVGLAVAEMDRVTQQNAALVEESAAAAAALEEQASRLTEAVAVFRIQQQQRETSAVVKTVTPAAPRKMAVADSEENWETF

B1: CheW (protein)
chain: MTGMTNVTKLASEPSGQEFLVFTLGDEEYGIDILKVQEIRGYDQVTRIANTPAFIKGVTNLRGVIVPIVDLRIKFSQVDVDYNDNTVVIVLNLGQRVVGIVVDGVSDVLSLTAEQIRPAPEFAVTLSTEYLTGLGALGDRMLILVNIEKLLNSEEMALLDSAASEVA
Kd: ~10 µM

Source: publication PMC1079850 (2005)
